Measurements as given in the supplement of paper PMC12667976.

B1: library; numbered along this chain (parent)
chain: MATDAALRRLLRLHRTEIAVAVDSAFPLLHALADHDVVPEDKFQETLHLKEKEGCPQAFHALLSWLLTQDSTAILDFWRVLFKDYNLERYGRLQPILDSFPKDVDLSQPRKGRKPPAVPKALVPPPRLPTKRKASEEARAAAPAALTPRGTASPGSQLKAKPPKKPESSAEQQRLPLGNGIQTMSASVQRAVAMSSGDVPGARGAVEGILIQQVFESGGSKKCIQVGGEFYTPSKFEDSGSGKNKARSSSGPKPLVRAKGAQGAAPGGGEARLGQQGSVPAPLALPSDPQLHQKNEDECAVCRDGGELICCDGCPRAFHLACLSPPLREIPSGTWRCSSCLQATVQEVQPRAEEPRPQEPPVETPLPPGLRSAGEEVRGPPGEPLAGMDTTLVYKHLPAPPSAAPLPGLDSSALHPLLCVGPEGQQNLAPGARCGVCGDGTDVLRCTHCAAAFHWRCHFPAGTSRPGTGLRCRSCSGDVTPAPVEGVLAPSPARLAPGPAKDDTASHEPALHRDDLESLLSEHTFDGILQWAIQSMARPAAPFPS

Variants of: B1
Test: AIRE transcriptional activation functional score (insulin promoter-GFP; nonsense median 0, synonymous median 1) (normalised score); higher = higher AIRE activity (more reporter activation)
Conditions: with insulin promoter-GFP reporter in HEK293
Experimental: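 Deep mutational scan of full-length human AIRE (codon-optimized cDNA, DT-POPCode NNN libraries over three regions) integrated at a Bxb1 landing pad in HEK293 cells carrying an insulin core promoter-GFP reporter at a Flp-In site. Cells were sorted for the top 10% GFP about 14 days after transfection. Variant frequency log-ratios (select vs non-select, TileSeq) were rescaled so that the nonsense median is 0 and the synonymous median is 1, then averaged over biological replicates.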

AIRE transcriptional activation functional score, by site and new letter:
K83: G -0.0227; S 0.122; N 0.0819; P -0.158; H 0.338; E -0.351; W 0.152; F 0.177; T 0.432; Q 0.546; I 0.0909; R 0.00955; L 0.753; Y -0.194; V -0.175; D -0.0712; M -0.821; C 0.194; A 0.537
Y90: A 0.366; L 0.0613; C 0.198; R 0.13; V 0.153; N 0.194; F 0.00136; K -0.475; P 0.0423; M 0.613; T 0.376; I -0.0337; E -0.843; H 0.364; D 0.18; Q -0.537; W -0.215; G -0.388; S -0.169
F77: Y 0.195; S -0.182; R -0.0859; V 0.192; Q -0.44; P -0.416; W -0.255; T 0.0954
V80: C -0.468; S -0.226; Y 0.606; N -6.41; L 0.613; M 0.629; I 1.57; F 0.527; H -0.971; E -0.149; R -0.324; G 0.653; A -0.0867
R92: D 0.169; P -0.2; C 0.489; S 0.275; V -0.0193; G 0.724; I -0.385; T -0.129; A -0.0922; Q 0.461; W 0.13; F 0.28; E -0.432; L -0.166; Y -0.675; H 0.298
W78: P 0.554; C 0.126; D 0.137; T 0.642; L 0.134; Q -2.24; M 0.308; H 0.363; S 0.301; A 0.0338; Y 0.346; E 0.582; R -0.0677; V -0.0156; G 0.214; I 0.15; N -0.791; F 0.409; K 0.0822
R89: H 0.994; A 0.812; G 0.255; M -2.04; F 1.93; P -1.08; V -3.54; W 0.927; C 0.253; L -0.165; Q 0.475; S 1.8
P95: K 0.336; H 0.425; F 1.19; I 0.95; M 1.41; Y 1.97; R 0.995; E 0.792; T 1.34; L 1.38; D 0.444; W 0.55; Q 1.61; N 1.56; A 1.12; S 0.715; V 1.12; C 0.979; G 1.01
E88: C 0.444; I 0.434; G -0.0199; W 0.779; D 0.357; S 0.402; L 0.861; R 2.71; T 1.95; M 0.132; A 1.18; F 0.0961; V 0.181; Q 1.91; K 0.437
R79: G 0.275; H 1.25; Q 0.112; S 0.372; D 0.209; T -2.81; C 0.278; F 0.705; V 0.88; W 0.0958; L 0.11; P -0.266; A 0.0777; M -0.695; I 0.217
L81: K -1.81; T 0.331; R -0.201; A -0.165; H -1.4; C 0.822; V -0.437; P 0.303; Y 0.0857; W 0.0861; G -0.169; S 0.123; D 0.439; I 0.143; F 0.331; E 0.209; M -0.00473; N 1.87
D84: F -0.14; I -0.4; N 0.535; G 0.841; H 0.341; Y 0.473; M -0.309; A 0.125; W 1.68; P 0.652; E 0.774; V -0.00793; S 1.11; L -0.0937; C -0.0537; T 0.74; K -0.063; R 0.794; Q 0.343
F82: I 0.234; V 0.0231; D 0.364; R 0.341; M -1.23; N -4.23; S 0.375; Y 0.443; A -0.904; K -0.492; T -0.086; W -0.557; C -0.279; L 0.0208; P -0.365; H 0.0485; G 0.401; Q 0.378
N86: D -1.05; R -0.161; S 0.134; F -0.398; T -0.124; M 1.34; P 0.153; W -0.448; L 0.306; C 0.345; V 1.33; G -0.0879; Q -0.241; I 0.0139; A -0.248; E -0.323; Y 0.0334; K -0.0593; H -0.275
Q94: V 1.42; L 0.662; I 1.17; M 1.89; T 0.511; G 0.865; Y 0.209; D 0.228; H 0.885; R 1.65; N -0.193; E 0.0511; K 1.21; A 1.44; S 0.266; C -0.262; W 1.53; P 0.0425; F 0.133
G91: Y 2.5; C -0.103; S 1.19; V 0.766; R 1.22; W 1.54; F 0.132; I -0.00302; L 0.236; E 1.71; A 0.266; P 0.488; D -0.369; H -0.774; M 1.02; T 0.431; K -0.415
Y85: H -0.286; L 0.211; T 0.418; F 0.722; G -1.95; W -1.85; Q -2.11; S 0.113; N -0.66; D 0.0634; I 0.794; P -0.276; R -0.639; K -1.13; C 0.367; V 0.302; E -2.83
L93: H -0.023; D -0.0637; V 0.0157; G -0.0131; Y -0.417; F 0.229; K -0.329; E 0.401; S -0.0816; R 0.0258; C -0.0574; I 0.258; P 0.0133; M -0.0479; A 0.124; T -0.0548; Q -0.189; W 0.0522; N 0.43
L87: S 0.0056; Q 0.462; R 1.14; Y -0.162; T 0.00113; W -0.816; H -0.266; A 0.0518; D 0.374; F -0.159; I 1.66; P 0.0832; V 0.869; G 0.476; E 1.49; C 0.115; N 0.531
I96: G -0.689; N 0.24; P -0.0986; H 1.08; M -0.371; S -0.438; L 0.547; D -0.0149; Q -1.73; K 0.201; T -1.01; C -0.194; R 0.0358; E 0.112; F 0.253; A -0.165
